Assay [1] addresses T1, human W3785-hProl.ECD.His (Human-TNFR2-His) protein (human, UniProt P20333 23-257).
T1 construct: extracellular domain; not shown: His tag
T1 sequence (looked up): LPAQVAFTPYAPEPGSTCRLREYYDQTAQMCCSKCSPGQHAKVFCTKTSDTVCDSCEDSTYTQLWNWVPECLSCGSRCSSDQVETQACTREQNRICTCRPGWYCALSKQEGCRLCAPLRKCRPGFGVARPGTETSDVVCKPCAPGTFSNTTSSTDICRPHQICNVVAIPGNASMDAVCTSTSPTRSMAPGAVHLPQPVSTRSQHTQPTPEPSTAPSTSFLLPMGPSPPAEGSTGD
Put plainly: indirect ELISA on coated Human-TNFR2-His. Here is the method:
(1) Coating: Human-TNFR2-His was diluted to 0.5 μg/mL with coating solution (1×PBS, pH 7.4), and coated into a 96-well ELISA plate at 100 μL/well at 4° C. overnight. The coating solution was poured off, and the plate was washed with 1×PBST at 300 μL per well, washed with a plate cleaning instrument for 4 times, and patted dry on sheet paper. [0184] (2) Blocking: it was blocked with 3% non-fat dry milk at 300 μL/well, and incubated at 37° C. for 1 h. The blocking solution was poured off, washed by a plate cleaning instrument for 4 times, and patted dry on sheet paper. [0185] (3) Sample dilution: the reference product and the test product were diluted with 3% non-fat dry milk to 10 μg/mL, and this was used as the initial concentration for 3-fold dilution with a total of 11 gradients of dilution, and another one blank well was set up, and only diluent was added. It was incubated at 100 μL/well at 37° C. for 1 h. Liquid in the wells was discarded, washed by a plate cleaning instrument for 4 times, and patted dry on the sheet paper. [0186] (4) Addition of enzyme-labeled secondary antibody: Peroxidase-conjugated AffiniPure F(ab′)2 Fragment Goat Anti-Human IgG was diluted with 3% non-fat dry milk at 1:20,000. It was incubated at 100 μL/well at 37° C. for 1 h. It was washed by a plate cleaning instrument for 6 times and patted dry on sheet paper. […] (5) Color development: TMB color development solution was added at 100 μL/well and wrapped with aluminium foil, and the color was developed at 37° C. without light for 8 min. [0188] (6) Termination of color development: terminal solution 1 M HCl was added to terminate the color development reaction at 100 μL/well. [0189] (7) Reading at 450 nm on the enzyme labeler. [0190]
Background: ELISA stands for enzyme-linked immunosorbent assay.

For assay [2], the target named is T1, human W3785-hProl.ECD.His …. The assay can be described thus: BLI (Octet Red96e), antibody on AHC sensor, Human-TNFR2-His in solution, multiple concentrations.

A word on the EC50: it is the concentration needed to bring the measured effect to its halfway point. Higher therefore signals a less potent agent. Usually Kd stands for the equilibrium constant for the complex coming apart. A low value points to a tighter complex. Usually koff stands for the first-order rate constant of dissociation. For orientation: kon means the rate constant with which the complex forms. Lower therefore signals slow association.

B1: Antibody 12 (antibody, V domains shown)
VH: QVQLVQSGAEVKKPGASVKVSCKASGYTFTDYIIHWVRQAPGQGLEWMGWIDPDYGNTDYADKFKKRVTMTADTSISTAFMELSRLRSDDTAVYYCARDDGSPLVMDAWGQGTLVTVSS
VL: DIQMTQSPSSLSASVGDRVTITCQGSQNIDNYLAWFQQKPGKAPKLLIYSTYSLQTGVPSRFSGSRSGTDFTLTISSLQPEDFATYFCFQYNNGYMFGGGTKLELK
notes: detected with anti-human IgG and captured on AHC sensors
In assay [1], B1 displayed a concentration giving a half-maximal response (EC50) of 0.0135 µg/mL. In addition, in assay [2], the Kd was 0.0863 nM, the koff is 0.000102 s⁻¹ and the kon stood at 1.21e+06 M⁻¹ s⁻¹.

B2: Antibody 18 (antibody, V domains shown)
VH: QVQLVQSGAEVKKPGASVKVSCKASGYTFTDYIIHWVRQAPGQGLEWMGWIDPDYGNTDYADKFKKRVTMTADTSISTAFMELSRLRSDDTAVYYCARDDGSPLVMDAWGQGTLVTVSS
VL: DIQMTQSPSSLSASVGDRVTITCQGSQNIDNYLAWFQQKPGKAPKLLIYSTYSLQTGVPSRFSGSRSGTDFTLTISSLQPEDFATYFCFQYNQGYMFGGGTKLELK
notes: captured on AHC sensors
As to B2, in assay [2], the Kd stood at 0.0638 nM, the koff amounted to 6.22e-05 s⁻¹ and the association rate constant (kon) was determined as 974000 M⁻¹ s⁻¹.

B3: Antibody 13 (antibody, V domains shown)
VH: QVQLVQSGAEVKKPGASVKVSCKASGYTFTDYIIHWVRQAPGQGLEWMGWIDPDYGNTDYADKFKKRVTMTADTSISTAFMELSRLRSDDTAVYYCARDDGSPLVMDAWGQGTLVTVSS
VL: DIQMTQSPSSLSASVGDRVTITCNGAQNIDNYLAWFQQKPGKAPKLLIYSTYSLQTGVPSRFSGSRSGTDFTLTISSLQPEDFATYFCFQYNNGYMFGGGTKLELK
notes: as for B1
In assay [1], B3 returned a concentration for a half-maximal effect (EC50) of 0.00496 µg/mL. Besides, in assay [2], the Kd came out at 0.117 nM, the dissociation rate constant (koff) came to 0.000134 s⁻¹ and the on-rate constant (kon) was 1.15e+06 M⁻¹ s⁻¹.

B4: Antibody 19 (antibody, V domains shown)
VH: QVQLVQSGAEVKKPGASVKVSCKASGYTFTDYIIHWVRQAPGQGLEWMGWIDPDYGNTDYADKFKKRVTMTADTSISTAFMELSRLRSDDTAVYYCARDDASPLVMDAWGQGTLVTVSS
VL: DIQMTQSPSSLSASVGDRVTITCQGSQNIDNYLAWFQQKPGKAPKLLIYSTYSLQTGVPSRFSGSRSGTDFTLTISSLQPEDFATYFCFQYNQGYMFGGGTKLELK
notes: captured on AHC sensors
In assay [2], B4 had a Kd of 1.48 nM, a koff of 0.00127 s⁻¹ and an association rate constant (kon) of 862000 M⁻¹ s⁻¹.

B5: Antibody 16 (antibody, V domains shown)
VH: QVQLVQSGAEVKKPGASVKVSCKASGYTFTDYIIHWVRQAPGQGLEWMGWIDPDYGNTDYADKFKKRVTMTADTSISTAFMELSRLRSDDTAVYYCARDEGSPLVMDAWGQGTLVTVSS
VL: DIQMTQSPSSLSASVGDRVTITCNGSQNIDNYLAWFQQKPGKAPKLLIYSTYSLQTGVPSRFSGSRSGTDFTLTISSLQPEDFATYFCFQYNNGYMFGGGTKLELK
notes: as for B1
Take B5: the 50% effective concentration (EC50) in assay [1] was 0.0203 µg/mL. Besides, in assay [2], binding was put at a Kd of 0.117 nM, the koff is 0.000134 s⁻¹ and the on-rate (kon) was found to be 1.15e+06 M⁻¹ s⁻¹.

B6: Antibody 17 (antibody, V domains shown)
VH: QVQLVQSGAEVKKPGASVKVSCKASGYTFTDYIIHWVRQAPGQGLEWMGWIDPDYGNTDYADKFKKRVTMTADTSISTAFMELSRLRSDDTAVYYCARDEGSPLVMDAWGQGTLVTVSS
VL: DIQMTQSPSSLSASVGDRVTITCQGSQNIDNYLAWFQQKPGKAPKLLIYSTYSLQTGVPSRFSGSRSGTDFTLTISSLQPEDFATYFCFQYNNGYMFGGGTKLELK
notes: as for B1
For the molecule B6, the EC50 in assay [1] was determined as 0.0149 µg/mL. In assay [2], this molecule registered a dissociation constant Kd of 0.133 nM, a koff of 0.000124 s⁻¹ and a kon of 933000 M⁻¹ s⁻¹.

B7: Antibody 14 (antibody, V domains shown)
VH: QVQLVQSGAEVKKPGASVKVSCKASGYTFTDYIIHWVRQAPGQGLEWMGWIDPDYGNTDYADKFKKRVTMTADTSISTAFMELSRLRSDDTAVYYCARDDASPLVMDAWGQGTLVTVSS
VL: DIQMTQSPSSLSASVGDRVTITCNGSQNIDNYLAWFQQKPGKAPKLLIYSTYSLQTGVPSRFSGSRSGTDFTLTISSLQPEDFATYFCFQYNNGYMFGGGTKLELK
notes: as for B1
With B7, the EC50 in assay [1] was 0.00375 µg/mL. In assay [2], this molecule registered an equilibrium dissociation constant (Kd) of 3.03 nM, a koff of 0.00282 s⁻¹ and an on-rate (kon) of 931000 M⁻¹ s⁻¹.

B8: Antibody 15 (antibody, V domains shown)
VH: QVQLVQSGAEVKKPGASVKVSCKASGYTFTDYIIHWVRQAPGQGLEWMGWIDPDYGNTDYADKFKKRVTMTADTSISTAFMELSRLRSDDTAVYYCARDDASPLVMDAWGQGTLVTVSS
VL: DIQMTQSPSSLSASVGDRVTITCQGSQNIDNYLAWFQQKPGKAPKLLIYSTYSLQTGVPSRFSGSRSGTDFTLTISSLQPEDFATYFCFQYNNGYMFGGGTKLELK
notes: as for B1
B8 had an EC50 in assay [1] of 0.0032 µg/mL. In addition, in assay [2], the Kd stood at 2.06 nM.

B9: Antibody 21 (antibody, V domains shown)
VH: EVQLVESGGGLVKPGGSLRLSCAASGFTFSNAWMGWVRQAPEKGLEWVGQIKDKSNNYPTYYAESVKGRFTISRDDSKNTLYLQMNSLKTEDTAVYYCTTYGDFFDYWGQGTLVTVSS
VL: DIQMTQSPSSLSASVGDRVTITCRASEDIYNALAWYQQKPGKVPKLLLYNANSLHTGVPSRFSGSGSGTDYTLTISSLQPEDFATYFCQQYYDHPLTFGQGTKLEIK
notes: as for B1
In the case of B9, in assay [1], the EC50 was found to be 0.0147 µg/mL. In assay [2], this molecule displayed a dissociation constant Kd of 0.177 nM, a koff of 0.000145 s⁻¹ and a kon of 821000 M⁻¹ s⁻¹.

B10: Antibody 23 (antibody, V domains shown)
VH: EVQLVQSGAEVKKPGATVKISCKVSGYSITDYLLHWVQQAPGKGLEWMGWIDPEEGKTKYGQKFQSRVTITADTSTDTAYMELSSLRSEDTAVYYCAANSGTGTMDAWGQGTLVTVSS
VL: DIVMTQSPATLSVSPGERATLSCKASQNVGSNVDWYQQKPGQSPRVLIYKASIRYTGIPARFSGSGSGTEFTLTISILQSEDFAVYFCMQSKSYPITFGQGTKLEIK
notes: captured on AHC sensors
In assay [2], B10 showed a Kd of 0.766 nM, an off-rate constant (koff) of 0.000371 s⁻¹ and an association rate constant (kon) of 484000 M⁻¹ s⁻¹.

B11: Antibody 27 (antibody, V domains shown)
VH: EVQLVQSGAEVKKPGATVKISCKVSGYSITDYLLHWVQQAPGKGLEWMGWIDPEDAKTKYGQKFQSRVTITADTSTDTAYMELSSLRSEDTAVYYCAAQSGTGTMDAWGQGTLVTVSS
VL: DIVMTQSPATLSVSPGERATLSCKASQNVGSNVDWYQQKPGQSPRVLIYKASIRYTGIPARFSGSGSGTEFTLTISILQSEDFAVYFCMQSKSYPITFGQGTKLEIK
notes: captured on AHC sensors
In assay [2], B11 displayed a Kd of 0.537 nM, a koff of 0.00077 s⁻¹ and a kon of 1.44e+06 M⁻¹ s⁻¹.

B12: Antibody 25 (antibody, V domains shown)
VH: EVQLVQSGAEVKKPGATVKISCKVSGYSITDYLLHWVQQAPGKGLEWMGWIDPEEGKTKYGQKFQSRVTITADTSTDTAYMELSSLRSEDTAVYYCAAQSGTGTMDAWGQGTLVTVSS
VL: DIVMTQSPATLSVSPGERATLSCKASQNVGSNVDWYQQKPGQSPRVLIYKASIRYTGIPARFSGSGSGTEFTLTISILQSEDFAVYFCMQSKSYPITFGQGTKLEIK
notes: captured on AHC sensors
For B12, in assay [2], binding was characterised by a dissociation constant (Kd) of 1.39 nM, the off-rate constant (koff) turned out to be 0.00193 s⁻¹ and the kon amounted to 1.39e+06 M⁻¹ s⁻¹.

B13: Antibody 24 (antibody, V domains shown)
VH: EVQLVQSGAEVKKPGATVKISCKVSGYSITDYLLHWVQQAPGKGLEWMGWIDPEDAKTKYGQKFQSRVTITADTSTDTAYMELSSLRSEDTAVYYCAANSGTGTMDAWGQGTLVTVSS
VL: DIVMTQSPATLSVSPGERATLSCKASQNVGSNVDWYQQKPGQSPRVLIYKASIRYTGIPARFSGSGSGTEFTLTISILQSEDFAVYFCMQSKSYPITFGQGTKLEIK
notes: captured on AHC sensors
In assay [2], B13 gave a Kd of 0.152 nM, a dissociation rate constant (koff) of 0.000109 s⁻¹ and an on-rate (kon) of 718000 M⁻¹ s⁻¹.

B14: Antibody 26 (antibody, V domains shown)
VH: EVQLVQSGAEVKKPGATVKISCKVSGYSITDYLLHWVQQAPGKGLEWMGWIDPEEGKTKYGQKFQSRVTITADTSTDTAYMELSSLRSEDTAVYYCAANSATGTMDAWGQGTLVTVSS
VL: DIVMTQSPATLSVSPGERATLSCKASQNVGSNVDWYQQKPGQSPRVLIYKASIRYTGIPARFSGSGSGTEFTLTISILQSEDFAVYFCMQSKSYPITFGQGTKLEIK
notes: captured on AHC sensors
In assay [2], B14 displayed a Kd of 0.0551 nM, a dissociation rate constant (koff) of 1.41e-05 s⁻¹ and a kon of 256000 M⁻¹ s⁻¹.

B15: Antibody 28 (antibody, V domains shown)
VH: EVQLVQSGAEVKKPGATVKISCKVSGYSITDYLLHWVQQAPGKGLEWMGWIDPEDAKTKYGQKFQSRVTITADTSTDTAYMELSSLRSEDTAVYYCAANSATGTMDAWGQGTLVTVSS
VL: DIVMTQSPATLSVSPGERATLSCKASQNVGSNVDWYQQKPGQSPRVLIYKASIRYTGIPARFSGSGSGTEFTLTISILQSEDFAVYFCMQSKSYPITFGQGTKLEIK
notes: captured on AHC sensors
On to B15, for which, in assay [2], the equilibrium dissociation constant (Kd) was less than 0.001 nM, the koff is less than 1e-07 s⁻¹ and the on-rate (kon) was determined as 225000 M⁻¹ s⁻¹.

Source of the values: patent US20250320303A1 (SHENGHE CHINA BIOPHARMACEUTICAL, published 2025).
